Assay results reported in US8173131B2, “Compositions and methods for modulating RSV infection and immunity” (PerkinElmer Health Sciences, Inc., priority 2000, dated 2012).

T1: CX3CR1 (293-CX3CR1 cells) (Homo sapiens, UniProt P49238)
T1 construct: expressed in transfected cells
T1 sequence (P49238 1-355): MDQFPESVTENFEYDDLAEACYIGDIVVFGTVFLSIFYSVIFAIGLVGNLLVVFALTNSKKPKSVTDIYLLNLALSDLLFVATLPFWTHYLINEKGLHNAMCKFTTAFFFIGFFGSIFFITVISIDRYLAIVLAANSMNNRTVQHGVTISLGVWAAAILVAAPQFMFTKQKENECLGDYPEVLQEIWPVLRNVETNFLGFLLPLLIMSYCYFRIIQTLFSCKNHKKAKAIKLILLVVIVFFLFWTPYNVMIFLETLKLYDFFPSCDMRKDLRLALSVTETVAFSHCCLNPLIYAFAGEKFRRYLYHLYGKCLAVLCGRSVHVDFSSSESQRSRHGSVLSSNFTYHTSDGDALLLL


How the values were obtained:
[1] = target: T1, CX3CR1 (293-CX3CR1 cells); experiment: G glycoprotein and Fkn binding to 293-CX3CR1 cells by flow cytometry; settings: for binding to 293-CX3CR1 cells: wheat germ lectin column fraction (G, F glycoprotein) or purified recombinant polyhistidine-tagged G glycoprotein
Protocol: (§1) Purified G glycoprotein was examined for binding to 293-CX3CR1 cells^33. A pcDNA 3.1 plasmid containing the CX3CR1 gene and a neomycin resistance gene was used to stably transfect human embryonic kidney (HEK) cells. Neomycin resistance was used for selection and maintenance of plasmid transfection of human embryonic kidney cells.
All binding studies were done on ice and either G glycoprotein or human Fkn (R&D Diagnostics, Minneapolis, […]) containing 1% bovine serum albumin (Sigma) and incubated with the 293-CX3CR1 cells or 293 control cells for 30 min at 4° C. […] For inhibition studies, 100 pM-1 μM human Fkn or G glycoprotein was preincubated with the cells for 30 min at 4° C. Without washing, 100 pM of either Fkn or G glycoprotein was added and incubated for 30 min at 4° C. The cells were washed, blocked with FcγRIII blocking antibody (HB197) for 30 min on ice, washed and stained as appropriate with either an anti-G glycoprotein monoclonal antibody cocktail (132-5B, 132-5G, 130-2G, 232-IF) or a biotinylated anti-G glycoprotein monoclonal antibody cocktail (130-2G, 131-2G) or anti-Fkn monoclonal antibody (51637.11; R&D Diagnostics). Concentrations of 1 μg of anti-G glycoprotein monoclonal antibody (131-2G)^34, rabbit anti-CX3CR1 sera^33, and anti-CX3CR1 monoclonal antibody containing 10 μg/ml heparin were used in all experiments. […] Staining was detected with absorbed FITC-goat anti-mouse (H & L chain) monoclonal antibody (PharMingen, San Diego, Calif.) or streptavidin-PE (PharMingen) using flow cytometry (FACScan, Becton-Dickinson, Mountain View, Calif.). A 76 amino acid ^125I-Fkn polypeptide comprising the […] (NEN, Boston, Mass.) was used in radioligand studies^33. As a control, the void volume following purified G glycoprotein passaged over an anti-G glycoprotein antibody (130-2G) affinity column was examined by flow cytometry for binding to either 293 or 293-CX3CR1 cells.
(§2) The receptor for Fkn, CX3CR1, was previously identified and characterized using anti-CX3CR1 rabbit antiserum and CX3CR1-transfected human embryonic kidney cells (293-CX3CR1 cells)^33.
The percent Fkn-maximum binding was calculated using the equation: [% G (or Fkn) 293-CX3CR1]-[% G (or Fkn) 293]/[% Fkn (10 nM) 293-CX3CR1]-[% Fkn (10 nM) 293], where G=G glycoprotein, Fkn=fractalkine, 293-CX3CR1=CX3CR1-transfected 293, 293=untransfected 293. The concentration of G glycoprotein was estimated using a molecular weight of 90 kD.

293 cells = experiment: G glycoprotein and Fkn binding to untransfected 293 control cells by flow cytometry; design: species or system human; settings: for binding to 293 cells: wheat germ lectin column fraction (G, F glycoprotein) or purified recombinant polyhistidine-tagged G glycoprotein
Protocol: as §1
All binding studies were done on ice and either G glycoprotein or human Fkn (R&D Diagnostics, Minneapolis, Minn.) were diluted between 1 nM-100 nM in PBS (GIBCO) containing 1% bovine serum albumin (Sigma) and incubated with the 293-CX3CR1 cells or 293 control cells for 30 min at 4° C. […] For inhibition studies, 100 pM-1 μM human Fkn or G glycoprotein was preincubated with the cells for 30 min at 4° C. Without washing, 100 pM of either Fkn or G glycoprotein was added and incubated for 30 min at 4° C. The cells were washed, blocked with FcγRIII blocking antibody (HB197) for 30 min on ice, washed and stained as appropriate with either an anti-G glycoprotein monoclonal antibody cocktail (132-5B, 132-5G, 130-2G, 232-IF) or a biotinylated anti-G glycoprotein monoclonal antibody cocktail (130-2G, 131-2G) or anti-Fkn monoclonal antibody (51637.11; R&D Diagnostics). Concentrations of 1 μg of anti-G glycoprotein monoclonal antibody (131-2G)^34, rabbit anti-CX3CR1 sera^33, and anti-CX3CR1 monoclonal antibody containing 10 μg/ml heparin were used in all experiments. […] Staining was detected with absorbed FITC-goat anti-mouse (H & L chain) monoclonal antibody (PharMingen, San Diego, Calif.) or streptavidin-PE (PharMingen) using flow cytometry (FACScan, Becton-Dickinson, Mountain View, Calif.). A 76 amino acid ^125I-Fkn polypeptide comprising the […] (NEN, Boston, Mass.) was used in radioligand studies^33. As a control, the void volume following purified G glycoprotein passaged over an anti-G glycoprotein antibody (130-2G) affinity column was examined by flow cytometry for binding to either 293 or 293-CX3CR1 cells.
as §2

[2] = test system: G glycoprotein binding to 293-CX3CR1 cells; design: species or system human; settings: heparin 5 μg/ml alone
Protocol: All binding studies were done on ice and either G glycoprotein or human Fkn (R&D Diagnostics, Minneapolis, Minn.) were diluted between 1 nM-100 nM in PBS (GIBCO) containing 1% bovine serum albumin (Sigma) and incubated with the 293-CX3CR1 cells or 293 control cells for 30 min at 4° C. […] Without washing, 100 pM of either Fkn or G glycoprotein was added and incubated for 30 min at 4° C. The cells were washed, blocked with FcγRIII blocking antibody (HB197) for 30 min on ice, washed and stained as appropriate with either an anti-G glycoprotein monoclonal antibody cocktail (132-5B, 132-5G, 130-2G, 232-IF) or a biotinylated anti-G glycoprotein monoclonal antibody cocktail (130-2G, 131-2G) or anti-Fkn monoclonal antibody (51637.11; R&D Diagnostics). Concentrations of 1 μg of anti-G glycoprotein monoclonal antibody (131-2G)^34, rabbit anti-CX3CR1 sera^33, and anti-CX3CR1 monoclonal antibody containing 10 μg/ml heparin were used in all experiments. […] Staining was detected with absorbed FITC-goat anti-mouse (H & L chain) monoclonal antibody (PharMingen, San Diego, Calif.) or streptavidin-PE (PharMingen) using flow cytometry (FACScan, Becton-Dickinson, Mountain View, Calif.). A 76 amino acid ^125I-Fkn polypeptide comprising the […] (NEN, Boston, Mass.) was used in radioligand studies^33. As a control, the void volume following purified G glycoprotein passaged over an anti-G glycoprotein antibody (130-2G) affinity column was examined by flow cytometry for binding to either 293 or 293-CX3CR1 cells.
For peptide inhibition studies, a series of G glycoprotein peptides were identified in the amino acid sequence of the A2 strain of RSV (GENBANK, attachment protein locus 1912305, Table 4). The peptides were synthesized using a simultaneous, multiple solid-phase peptide synthesis method on a peptide synthesizer (Perkin-Elmer Applied Biosystems, Berkeley, Calif.), and tested for homogeneity by reverse-phase liquid chromatography and capillary electrophoresis (www.biotech.cdc.gov/protein/methods). Inhibition assays were performed as described for the binding studies above.
To determine if G glycoprotein bound 293-CX3CR1 cells via CX3CR1, the ability of four reagents (anti-CX3CR1 rabbit antiserum, anti-CX3CR1 monoclonal antibody (2A9-1), Fkn and a 76 amino acid 125-I-Fkn polypeptide containing the CX3C domain) that bind to CX3CR1 to block G glycoprotein binding to 293-CX3CR1 cells was examined. In addition, to determine if binding of G glycoprotein to 293-CX3CR1 cells was dependent upon the CX3C motif, G glycoprotein peptides with a single residue insertion (Δ+1) or deletion (Δ−1) in the CX3C motif and also peptides that lacked or included the CX3C motif (Table 4) were generated. This panel of peptides was analyzed for their ability to block G glycoprotein or Fkn binding to 293-CX3CR1 cells.
Inhibition of Fkn and G glycoprotein binding to 293-CX3CR1 cells by treatment with monoclonal antibodies to G glycoprotein or CX3CR1, or treatment with G glycoprotein, Fkn, or G glycoprotein peptides in the presence or absence of heparin as described in Methods. […] The concentration of G glycoprotein was estimated using a molecular weight of 90 kD.

RSV [3] = experiment: RSV plaque reduction assay on Vero cells (Example 1); type: cell-based, RSV/A2; settings: 5 μg/ml
Protocol: Dilutions of Fkn (R&D systems), SDF-1 α (R&D systems), G glycoprotein, heparin (Sigma), G glycoprotein peptides and anti-CX3CR1 antibody were made in serum-free Dulbecco's Modified Eagle's Media (DMEM; GIBCO) containing 1% BSA (Sigma) and preincubated with the Vero cells for 1 h at 37° C. 50 μg of anti-CX3CR1 antibody or heat-inactivated (56° C., 30 min) normal rabbit sera (control) were used in all experiments. […] Dilutions of RSV were made in serum-free DMEM (GIBCO) and added to pretreated Vero cells for 2 h at 37° C. Following virus infection, DMEM (GIBCO) containing 10% FBS (Hyclone, Logan, Utah) was added to the wells. Plaques were enumerated using immunostaining for F and G glycoproteins using biotinylated monoclonal antibodies 131-2A (anti-F glycoprotein) and 130-2G (anti-G glycoprotein) as described^45.
RSV plaque reduction following treatment with G glycoprotein, Fkn, G glycoprotein peptides, anti-CX3CR1 antibody, SDF-1-α and/or heparin as described in Methods. Percent inhibition was determined from the mean plaque forming units (pfu) of treated Vero cells over saline-treated Vero cells using a dilution of RSV that would produce 40-80 pfu. p-values were determined using unpaired two-tailed analysis where p<0.05 is significant. The concentration of G glycoprotein was estimated using a molecular weight of 90 kD.

RSV [4] = experiment: RSV plaque reduction by small molecule peptide inhibitors on Vero cells (Example II); type: cell-based, RSV/A2; settings: heparin alone, 5 μg/ml
Protocol: Vero cells were treated with PBS, RT33, RT34, Δ+1, Δ−1 and EYp1 peptides (100 μm) in the presence (B) or absence of heparin (A) (5 μg/ml). Percentage inhibition was determined by dividing the mean plaque forming units (PFU) of treated Vero cells by the mean PFU of PBS-treated Vero cells.
Different concentrations of the G glycoprotein peptides and/or 5 μg/ml heparin (Sigma) were diluted in Dulbecco's phosphate buffered saline (D-PBS; GIBCO) and added to Vero cell monolayers for 1 h at 37° C. Pre-treated Vero cells were infected with 10^6 PFU of RSV/A2 diluted in serum-free DMEM (GIBCO) for 2 h at 37° C., after which DMEM (GIBCO) containing 10% FBS (Hyclone, Logan, Utah) was added, and the infected cells incubated at 37° C. for 3-4 days. Plaques were enumerated by immunostaining with monoclonal antibodies against the G and F glycoproteins (130-2G and 131-2A, respectively), as described (54,55).

[5] = target: T2, Fkn binding to 293-CX3CR1 cells (Homo sapiens, UniProt P49238); settings: heparin 5 μg/ml alone
T2 construct: host or cells: HEK 293 cells stably transfected with CX3CR1

[6] = 10 nM ligand, representative experiment, FIG. 1

Molecule | binding to 293-CX3CR1 cells [1] | binding to 293 cells (293 cells) | Range of Inhibition (%) of G glycoprotein binding [2] | plaque inhibition (%) (RSV [3]) | inhibition of plaque formation (RSV [4]) [%] | Range of Inhibition (%) of Fkn binding [5] | percent positive staining of CX3CR1-293 cells [1, 6] [%] | percent positive staining of 293 cells (293 cells; [6]) [%]
F glycoprotein: RSV F (fusion) glycoprotein in wheat germ lectin column fraction | 12% | 8% |  |  |  |  |  | 
Heparin [reference compound] |  |  | 78-84% | 66 | 80 | 57-65% |  | 
GHIS: purified recombinant soluble polyhistidine-tagged G glycoprotein from transfected Vero cells (protein, left off: small tags and cut ends, purified recombinant soluble polyhistidine-tagged G glycoprotein from transfected Vero cells) NHKVTPTTAIIQDATSQIKNTTPTYLTQNPQLGISPSNPSEITSQITTILASTTPGVKSTLQSTTVKTKNTTTTQTQPSKPTTKQRQNKPPSKPNNDFHFEVFNFVPCSICSNNPTCWAICKRIPNKKPGKKTTTKPTKKPTLKTTKKDPKPQTTKSKEVPTTKPTEEPTINTTKTNIITTLLTSNTTGNPELTSQMETFHSTSSEGNPSPSQVSTTSEYPSQPSSPPNTPRQ | 68-88% | 7-12% |  |  |  |  | 68 | 12
